# Article PMC5974017, “Increased glutarate production by blocking the glutaryl-CoA dehydrogenation pathway and a catabolic pathway involving L-2-hydroxyglutarate” (Nature Communications, 2018)
# T1: LhgO (Pseudomonas putida, UniProt Q88IT9)
# T1 construct: recombinant His-tagged from E. coli BL21(DE3), pETDuet-1; partly lost FAD on purification
# T1 sequence (Q88IT9 1-416): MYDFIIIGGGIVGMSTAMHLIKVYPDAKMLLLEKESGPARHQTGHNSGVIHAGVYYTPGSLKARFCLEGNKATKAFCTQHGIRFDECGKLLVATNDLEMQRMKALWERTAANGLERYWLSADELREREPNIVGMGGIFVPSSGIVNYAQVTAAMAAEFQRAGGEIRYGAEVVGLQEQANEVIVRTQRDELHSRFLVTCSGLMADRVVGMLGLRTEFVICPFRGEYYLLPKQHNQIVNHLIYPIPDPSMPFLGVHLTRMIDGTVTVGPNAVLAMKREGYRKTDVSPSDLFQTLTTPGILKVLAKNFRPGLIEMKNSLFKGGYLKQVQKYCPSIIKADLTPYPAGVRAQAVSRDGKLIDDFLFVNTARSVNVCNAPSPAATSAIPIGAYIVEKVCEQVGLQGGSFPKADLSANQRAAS
# T2: YgaF (Escherichia coli, UniProt P37339)
# T2 construct: gene lhgD; recombinant from E. coli BL21(DE3), pETDuet-1, HisTrap purified
# T2 sequence (P37339 1-422): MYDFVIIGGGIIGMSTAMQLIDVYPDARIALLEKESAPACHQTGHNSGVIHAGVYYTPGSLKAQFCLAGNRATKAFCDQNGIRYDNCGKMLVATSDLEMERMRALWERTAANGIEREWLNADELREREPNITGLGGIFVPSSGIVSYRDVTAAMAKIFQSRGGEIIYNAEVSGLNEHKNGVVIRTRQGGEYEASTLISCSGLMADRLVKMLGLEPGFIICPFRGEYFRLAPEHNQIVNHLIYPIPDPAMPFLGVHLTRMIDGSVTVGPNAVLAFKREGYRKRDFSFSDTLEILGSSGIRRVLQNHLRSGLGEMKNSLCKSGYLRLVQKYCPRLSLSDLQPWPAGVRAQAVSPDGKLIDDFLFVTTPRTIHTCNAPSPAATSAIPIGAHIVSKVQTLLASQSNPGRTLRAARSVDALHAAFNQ
# How the values were obtained:
# LhgO [1] = target: T1, LhgO; assay: oxygen electrode, stimulation of oxidase activity; type: biochemical; conditions: enzyme preincubated with 50 μM FAD 1 h on ice; 5 mM L-2-HG, Tris-HCl pH 7.4, 30 °C
# O=C(O)CCC(=O)C(=O)O = assay: Clark-type oxygen electrode, double-reciprocal plot; type: biochemical, Pseudomonas putida; conditions: pH 6.7
# Source text: (§1) Clark-type oxygen electrode, double-reciprocal plot on CsiD
# O=C(O)CCCC(=O)O = assay: as above; type: biochemical, Pseudomonas putida; conditions: pH 6.7
# Source text: as §1
# [2] = target: T3, LhgO homolog from Klebsiella pneumoniae ATCC25955 (Klebsiella pneumoniae, UniProt A6T539); assay: L-2-HG oxidation to 2-KG; type: biochemical
# T3 construct: gene ygaF; recombinant from E. coli BL21(DE3), pETDuet-1, HisTrap purified
# LhgO [3] = target: T1, LhgO; assay: DCPIP reduction at […] nm; product 2-KG by HPLC and LC-MS/MS; type: biochemical; conditions: 50 mM Tris-HCl pH 7.4, 30 °C, 5 mM L-2-HG, 0.1 mM DCPIP
# YgaF = target: T2, YgaF; assay: L-2-HG oxidation to 2-KG; oxygen electrode; type: biochemical; conditions: 50 mM Tris-HCl pH 7.4, 30 °C, 5 mM L-2-HG
# [4] = target: T4, CsiD homolog from E. coli K-12 MG1655 (Escherichia coli, UniProt P76621); assay: glutarate hydroxylation by purified homolog; type: biochemical; conditions: co-substrate 2-KG
# T4 construct: gene glaH; recombinant from E. coli BL21(DE3), pETDuet-1, HisTrap purified
# [5] = target: T5, CsiD homolog from Klebsiella pneumoniae ATCC25955 (Klebsiella pneumoniae, UniProt A6T540); assay: glutarate hydroxylation by purified homolog; type: biochemical; conditions: co-substrate 2-KG
# T5 construct: recombinant from E. coli BL21(DE3), pETDuet-1, HisTrap purified
# [6] = target: the molecule itself; assay: SEC; Superdex 200 10/300 GL, eluent buffer C (50 mM sodium phosphate, 150 mM sodium chloride, pH 7.2), flow 0.5 mL min^-1; calibrated with thyroglobulin, ferritin, aldolase, conalbumin, ovalbumin and RNase A; native mass divided by the calculated monomer mass of 38.9 kDa
# T3 sequence (A6T539 entry or part of it): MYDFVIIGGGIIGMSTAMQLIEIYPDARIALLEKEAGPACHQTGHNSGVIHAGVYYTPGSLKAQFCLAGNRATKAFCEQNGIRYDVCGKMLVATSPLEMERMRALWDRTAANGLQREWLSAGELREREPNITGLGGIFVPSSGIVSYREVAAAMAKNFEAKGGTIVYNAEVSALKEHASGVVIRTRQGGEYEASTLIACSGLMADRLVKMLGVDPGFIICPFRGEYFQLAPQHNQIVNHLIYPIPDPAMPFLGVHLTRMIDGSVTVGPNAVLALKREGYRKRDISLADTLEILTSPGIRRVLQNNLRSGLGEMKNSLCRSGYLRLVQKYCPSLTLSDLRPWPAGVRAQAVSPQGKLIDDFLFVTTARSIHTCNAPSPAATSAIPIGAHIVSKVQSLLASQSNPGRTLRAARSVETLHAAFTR
# T5 sequence (A6T540 entry or part of it): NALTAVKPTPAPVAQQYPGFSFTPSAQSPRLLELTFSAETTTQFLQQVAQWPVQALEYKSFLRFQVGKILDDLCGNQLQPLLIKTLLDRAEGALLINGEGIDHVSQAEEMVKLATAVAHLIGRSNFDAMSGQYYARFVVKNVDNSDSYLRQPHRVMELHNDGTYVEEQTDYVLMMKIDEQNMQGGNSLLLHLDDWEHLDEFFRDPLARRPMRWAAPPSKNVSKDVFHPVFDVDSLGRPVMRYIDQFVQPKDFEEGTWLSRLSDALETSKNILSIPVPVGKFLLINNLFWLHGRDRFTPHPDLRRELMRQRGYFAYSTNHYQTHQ
# T4 sequence (P76621 whole entry): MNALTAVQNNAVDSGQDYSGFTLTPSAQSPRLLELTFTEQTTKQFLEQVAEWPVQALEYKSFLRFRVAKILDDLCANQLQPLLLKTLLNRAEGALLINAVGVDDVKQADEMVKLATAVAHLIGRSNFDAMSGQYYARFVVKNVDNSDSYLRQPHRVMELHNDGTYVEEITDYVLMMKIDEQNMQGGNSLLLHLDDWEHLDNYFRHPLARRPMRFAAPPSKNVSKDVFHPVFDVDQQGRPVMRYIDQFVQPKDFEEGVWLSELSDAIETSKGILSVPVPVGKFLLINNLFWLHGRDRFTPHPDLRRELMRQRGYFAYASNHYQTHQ
molecule,measurement,setting,value
Cc1cc2nc3c(=O)[nH]c(=O)nc-3n(C[C@H](O)[C@H](O)[C@H](O)COP(=O)(O)OP(=O)(O)OC[C@H]3O[C@@H](n4cnc5c(N)ncnc54)[C@H](O)[C@@H]3O)c2cc1C [FAD],"oxygen electrode, stimulation of oxidase activity",LhgO [1],The oxidase activity of LhgO can be stimulated by FAD
CsiD (Pseudomonas putida KT2440),Km,O=C(O)CCC(=O)C(=O)O,95.33 ± 0.97 µM
same,Vmax,O=C(O)CCC(=O)C(=O)O,144 µmol/min/mg
same,kcat/Km,O=C(O)CCC(=O)C(=O)O,7.49e+06 ± 120000 M⁻¹ s⁻¹
same,Km,O=C(O)CCCC(=O)O,145.67 ± 1.53 µM
same,Vmax,O=C(O)CCCC(=O)O,264 µmol/min/mg
same,kcat/Km,O=C(O)CCCC(=O)O,6.93e+06 ± 30000 M⁻¹ s⁻¹
O=C(O)CC[C@H](O)C(=O)O [L-2-HG],L-2-HG oxidation to 2-KG,[2],the homologs of LhgO can catalyze L-2-HG to produce 2-KG
same,DCPIP reduction at 600 nm; product 2-KG by HPLC and LC-MS/MS,LhgO [3],Robust activity was detected only when L-2-HG was used as the substrate
same,L-2-HG oxidation to 2-KG; oxygen electrode,YgaF,the homologs of LhgO can catalyze L-2-HG to produce 2-KG
O=C(O)CCCC(=O)O [glutarate],glutarate hydroxylation by purified homolog,[4],All three homologs of CsiD can catalyze the hydroxylation of glutarate
same,glutarate hydroxylation by purified homolog,[5],All three homologs of CsiD can catalyze the hydroxylation of glutarate
"CsiD of P. putida KT2440, glutarate hydroxylase (enzyme, Pseudomonas putida KT2440, UniProt Q88IU0 1-325, looked up, CsiD (glutarate hydroxylase) of Pseudomonas putida KT2440, locus PP2909; gene amplified from genomic DNA with primers csiD-F/csiD-R and cloned EcoRI/HindIII into pETDuet-1; also called PP2909; Fe2+/2-KG-dependent glutarate hydroxylase; source: E. coli BL21(DE3) harboring pETDuet-csiD, purified (HisTrap HP column)) MNAFTQIDELVMPLPLEPQGYTIAPSKQSPRLLELTFARETVEAFVQAVAQWPVQALEYKSFLRFRVGEILDELCQGTLRPVLLNTILDRATGGMLITPIGLDDVSQAEDMVKFTTACAHLIGRSNYDAMSGQFYARFVVVNSDNSDSYLRQPHRVMELHNDGTFVNQITDYVLMLKIDEKNMEGGNSLLLHLDDWEQCEAFFRHPLARREMRWTAPPSKKVAEDVFHSVFDTDAEGRPTMRYIDQFVQPENYEEGIWLNALSESLEGSGKKVSVPVGVGSFLLINNLFWLHGRDRFTPHEGLRRELMRQRGYVAFPKPLYQRGQ",stoichiometry N,[6],8
